Assay results as given in patent publication US20220135690A1 (TWIST BIOSCIENCE, published 2022).

Experiments:
[1] = target: T1, CXCR4 chemokine receptor (UniProt P61072 1-352); assay: HTRF ligand competition
T1 chain: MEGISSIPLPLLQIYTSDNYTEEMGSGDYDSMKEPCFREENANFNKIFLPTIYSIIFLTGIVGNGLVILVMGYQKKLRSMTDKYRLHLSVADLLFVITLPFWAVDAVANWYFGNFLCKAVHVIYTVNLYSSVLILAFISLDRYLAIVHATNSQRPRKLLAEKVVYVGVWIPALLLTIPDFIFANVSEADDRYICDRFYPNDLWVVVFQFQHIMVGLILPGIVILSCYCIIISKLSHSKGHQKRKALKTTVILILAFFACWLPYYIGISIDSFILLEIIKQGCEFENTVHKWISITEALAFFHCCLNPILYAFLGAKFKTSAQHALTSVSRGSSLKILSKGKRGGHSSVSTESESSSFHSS

[2] = target: CXCR4 chemokine receptor (Pan troglodytes (Chimpanzee), UniProt P61072 1-352); assay: cell-based or functional assay

IC50 [1]: 0.687 nM
IC50 in cAMP assay [2]: 0.9 nM
B1: CXCR4-81-6 (antibody, V domains shown)
VH: EVQLVESGGGLVQAGGSLRLSCAASGRTFSSYAMGWFRQAPGKEREFVAAISWSGGSTYYADSVKGRFTISADNAKNTVYLQMNSLKPEDTAVYYCAAARGYWRWRLGRRYDYWGQGTQVTVSS
VL: DIQMTQSPSSLSASVGDRVTITCRASQSVTTYLNWYQQKPGKAPKLLIYGSSNLQSGVPSRFSGSGSGTDFTLTISSLQPEDFATYYCQQGYSTPWTFGGGTKVEIKR
